# From US20140017235A1
# B1: antibody E3 (full antibody) (antibody, human IgG2, kappa)
# heavy: QVQLQESGPGLVKPSETLSLTCTVSGFSLIGYDLNWIRQPPGKGLEWIGIIWGDGTTDYNSAVKSRVTISKDTSKNQFSLKLSSVTAADTAVYYCARGGYWYATSYYFDYWGQGTLVTVSSASTKGPSVFPLAPCSRSTSESTAALGCLVKDYFPEPVTVSWNSGALTSGVHTFPAVLQSSGLYSLSSVVTVPSSNFGTQTYTCNVDHKPSNTKVDKTVERKCCVECPPCPAPPVAGPSVFLFPPKPKDTLMISRTPEVTCVVVDVSHEDPEVQFNWYVDGVEVHNAKTKPREEQFNSTFRVVSVLTVVHQDWLNGKEYKCKVSNKGLPSSIEKTISKTKGQPREPQVYTLPPSREEMTKNQVSLTCLVKGFYPSDIAVEWESNGQPENNYKTTPPMLDSDGSFFLYSKLTVDKSRWQQGNVFSCSVMHEALHNHYTQKSLSLSPGK
# light: not shown
# modifications: not checked
# Molecular target: human NGF (human), P01138
# Assay: cell-based or functional assay
# Sequence of human NGF (human), P01138 (P01138 122-241 limits assumed): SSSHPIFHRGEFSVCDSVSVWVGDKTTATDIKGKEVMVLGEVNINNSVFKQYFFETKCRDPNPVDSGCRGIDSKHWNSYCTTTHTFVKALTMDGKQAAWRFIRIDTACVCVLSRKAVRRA
binder,measurement,value
B1,antibody concentration that totally blocked NGF-elicited survival of trigeminal neurons,20 nM
